In PMC6338552 (Biochemistry, 2018):
Like-named read-outs stand apart in the source and are kept apart here. TMR = 6-carboxytetramethylrhodamine

B1: TMR-JIPtide (peptide)
peptide: {TMR}-RPKRPTTLNLF-OH
B2: His6-JNK1α1 (enzyme, UniProt P45983-2 1-384, looked up)
chain: MSRSKRDNNFYSVEIGDSTFTVLKRYQNLKPIGSGAQGIVCAAYDAILERNVAIKKLSRPFQNQTHAKRAYRELVLMKCVNHKNIIGLLNVFTPQKSLEEFQDVYIVMELMDANLCQVIQMELDHERMSYLLYQMLCGIKHLHSAGIIHRDLKPSNIVVKSDCTLKILDFGLARTAGTSFMMTPYVVTRYYRAPEVILGMGYKENVDLWSVGCIMGEMVCHKILFPGRDYIDQWNKVIEQLGTPCPEFMKKLQPTVRTYVENRPKYAGYSFEKLFPDVLFPADSEHNKLKASQARDLLSKMLVIDASKRISVDEALQHPYINVWYDPSEAEAPPPKIPDKQLDEREHTIEEWKELIYKEVMDLEERTKNGVIRGQPSPLAQVQQ

Assays:
Test in all cases: fluorescence polarisation
His6-JNK3α1 [1] = target: T1, His6-JNK3α1 (UniProt P53779-2 1-422)
His6-JNK1α1 [2] = target: B2
His6-JNK2α1 [3] = target: T2, His6-JNK2α1 (UniProt P45984-2 1-382)
His6-JNK3α1 [4] = target: T1, His6-JNK3α1; remark: listed apart in the source
His6-JNK1α1 [5] = target: B2; remark: listed apart in the source
His6-JNK2α1 [6] = target: T2, His6-JNK2α1; remark: listed apart in the source
His6-JNK3α1 [7] = target: T1, His6-JNK3α1; remark: listed apart in the source
His6-JNK1α1 [8] = target: B2; remark: listed apart in the source
His6-JNK2α1 [9] = target: T2, His6-JNK2α1; remark: listed apart in the source
His6-JNK3α1 [10] = target: T1, His6-JNK3α1; remark: listed apart in the source
His6-JNK1α1 [11] = target: B2; remark: listed apart in the source
His6-JNK2α1 [12] = target: T2, His6-JNK2α1; remark: listed apart in the source
His6-JNK3α1 [13] = target: T1, His6-JNK3α1; remark: listed apart in the source
His6-JNK1α1 [14] = target: B2; remark: listed apart in the source
His6-JNK2α1 [15] = target: T2, His6-JNK2α1; remark: listed apart in the source
His6-JNK3α1 [16] = target: T1, His6-JNK3α1; remark: listed apart in the source
His6-JNK1α1 [17] = target: B2; remark: listed apart in the source
His6-JNK2α1 [18] = target: T2, His6-JNK2α1; remark: listed apart in the source
His6-JNK3α1 [19] = target: T1, His6-JNK3α1; remark: listed apart in the source
His6-JNK3α1 [20] = target: T1, His6-JNK3α1; remark: listed apart in the source
His6-JNK1α1 [21] = target: B2; remark: listed apart in the source
His6-JNK2α1 [22] = target: T2, His6-JNK2α1; remark: listed apart in the source
TMR-JIPtide = target: B1

Q: With B1 as the binder, how does the Kd (His6-JNK3α1 [1]) read?
A: 1.5 µM

Q: And the Kd (His6-JNK1α1 [2])?
A: 0.44 µM

Q: What about the Kd (His6-JNK2α1 [3]) of the same binder?
A: 5.1 µM

Q: And the Kd (His6-JNK3α1 [4])?
A: 1.7 µM

Q: And the Kd (His6-JNK1α1 [5])?
A: 0.68 µM

Q: And the Kd (His6-JNK2α1 [6])?
A: 37 µM

Q: What about the Kd (His6-JNK3α1 [7]) of the same binder?
A: 4.6 µM

Q: What about the Kd (His6-JNK1α1 [8]) of the same binder?
A: 3.2 µM

Q: What about the Kd (His6-JNK2α1 [9]) of the same binder?
A: 15 µM

Q: And the Kd (His6-JNK3α1 [10])?
A: 2.8 µM

Q: And the Kd (His6-JNK1α1 [11])?
A: 1.5 µM

Q: What about the Kd (His6-JNK2α1 [12]) of the same binder?
A: 6 µM

Q: And the Kd (His6-JNK3α1 [13])?
A: 0.48 µM

Q: And the Kd (His6-JNK1α1 [14])?
A: 0.23 µM

Q: What about the Kd (His6-JNK2α1 [15]) of the same binder?
A: 4.6 µM

Q: And the Kd (His6-JNK3α1 [16])?
A: 0.64 µM

Q: And the Kd (His6-JNK1α1 [17])?
A: 0.25 µM

Q: What about the Kd (His6-JNK2α1 [18]) of the same binder?
A: 3 µM

Q: What about the Kd (His6-JNK3α1 [19]) of the same binder?
A: 1.9 µM

Q: What about the Kd (His6-JNK3α1 [20]) of the same binder?
A: 12 µM

Q: And the Kd (His6-JNK1α1 [21])?
A: 14 µM

Q: What about the Kd (His6-JNK2α1 [22]) of the same binder?
A: 17 µM

Q: For B2, which “fold tighter binding than apo-JNK1” value (TMR-JIPtide) is on record?
A: 2 fold
